Source: the DeepSol protein solubility set

Assay: soluble on expression in E. coli; label from the status in PepcDB or PDB records

| Sequence | soluble on expression in E. coli |
| --- | --- |
| MHDKMHDTGTRSDMARFNPLHGNPLKSRADVRRALDDSFAPLLPYFSPGGARVALSGTAAHFDRAAADLEGFARPLWGIAPLALSGDTFAHWPLLAKGIANGTDPAHPDYWGDVRQKDQRLVELAAIGFALRLAPQHLWEPLSDAQKENVSRYLLAARERNYADNNWKFFRVMVDMALDHLGIGFDRSLTETFQKELDDFYIADGWYRDGNYRRIDHYIAFAMHFYGLIYARLSKPDDAYAKRYRERARLFAGDFASWFDEDGGALAFGRSMTYRFACGGFWAGLAFADEEALPWGEIKGLYLSHLRWWAEKPIADRDGVLSIGYAYPQLTMSESYNSAGSPYWAFKAFLPLALPESHPFWQAQETLPKVSTNPHPLVHPGMVMMRAKGNVTALSSGQENLAMRGGPEKYAKFAYSSRYGFGVEVDERGFRTNGFDNILAFSDDGLHYRVRETNRKVLMAGANLRATWKPFPDVTVETTLVAAENWHVRLHRITSARALAVAEGGFAINRNDGERDVVSETGGKATADCGTDISAIVDLGSTISRHGVALKALPNTNLINAKTTVPQLRGEIPAGETMLACAVFAGVAGAESERALAAVPACPDLEALDRLFADRGVPVSAMAGEPQLEHHHHHH | not soluble |
| MGSDKIHHHHHHMKMVTKLSIVLGLIATLVLSGCQKHDTHEEMPHYAATTPFREDTSILEPYVCQIRAIRHIEVRSLEKGYLTHIFIDEGQWVKKGQPMFKIMPNVYQAELLTAEAEAQNVNIEYLNTKALADKNIVSANELALAKAKLDKANAQVNLAKTHLGFTDIRAPFDGITDHLAVRIGSLLDEDDLLTELSDIAHLWVYFNVPEAKYLDFIRREKGKTNEKVQLRMANGEIYEHTGVIETIVGDFYNTSGNIQFRALFENPDRVLRHGQTGTILMTVPYPNAMLIPQKATFEIMDKIYLYVVNKEEKVEQRLIQIEAELPHMFIVKSGVNDGERILIEGMRKVSPGDKVMIDLKPPQEVRSELMKLYTE | not soluble |
| MRKNILITGVHGYIGNALKDKLIEQGHQVDQINVRNQLWKSTSFKDYDVLIHTAALVHNNSPQARLSDYMQVNMLLTKQLAQKAKAEDVKQFIFMSTMAVYGKEGHVGKSDQVDTQTPMNPTTNYGISKKFAEQALQELISDSFKVAIVRPPMIYGAHCPGNFQRLMQLSKRLPIIPNINNQRSALYIKHLTAFIDQLISLEVTGVYHPQDSFYFDTSSVMYEIRRQSHRKTVLINMPSMLNKYFNKLSVFRKLFGNLIYSNTLYENNNALEIIPGKMSLVIADIMDETTTKDKA | not soluble |
| MAGDPMSRRVIRTYKLAVPGHLSQTCEELNRTAARIYNKTMSLVRKIHQKKGFWLSWPTADKYILRWAENIKIHVHSKQAFVQLYFQALKGYFKATKKNPDAKPPHKKKRYLPFIWKESAVKLLPDGTLRLSLGKERESFVVQTPLKPPLRIKQTRLVFEDGYYLHLAIEVEIEEKNAGSGVMAVDLGVLRPITCFDGKEVISYHGGVLSSVLRYRNKRLASFQSAIAECKKGSRRYNKLVRAKKRVLRRLRNQINDIMHKITSNFIGLCLRKQIGTIVIGDVTGIRERADYSDNANQKIHQWQFRKLIEMIRYKAEQFGIEVKLISEANTSKTCPVCGAKNNPNGRRYHCKACGFEYHRDGVGAINIWKRYPGTGQVVAGLAPVRGVRFHPHLCGHGASLAPWKVALEHHHHHH | not soluble |
| SLIKNEHVKKCDTWPSGGEMVVKDLTVKYVDDGNAILENICFSISPGQRVGLLGRTGSGKSTLLSAFLRMLNIKGEIQIDGVSWNSMTLEEWRKAFGVITQKVFIFSGTFRQNLDPNGKWRDEEIWKVADQVGLKSVIEQFPGQLNFTLVDGGYVLSHGHKQLMCLARSVLSKAKIILLDEPSANLDPITYQVIRRVLRQAFAGCTVVLCEARIEAMLDCDRFLVIEQGNVWQYESLQALLSEKSDFQRALSSSE | soluble |
| GQGVSRSGALDLGALRSANRTVGNPSDMACVESVLGGLSFSCHGSAVIAITGAHTPVTITSASGLQWQASNYQPIELETGDRVSLGSPKAGLRSYLAIRGGFDVTPVLGSLSTDTLAQLGPEALATGDRLGFTAPVNGTSVSLNEAPAFELPTTANIVTLDVVMGPRTDWFTENAIQRLSSQLWRVTPQSNRVGIRLAGDTPLERSNHQELPSEGTSVGAIQVPASGQPVLFLADHPLTGGYPVIASVASHHLDLAGQIPVNAQIRFNPLGAFEEMQPSTEASFSTADAKNNS | not soluble |
| MEHKEVVLLLLLFLKSGQGEPLDDYVNTQGPSLFSVTKKQLGAGSREECAAKCEEDKEFTCRAFQYHSKEQQCVIMAENRKSSIIIRMRDAVLFEK | not soluble |
| SGRLSVSRQNFEVHKHLNRLNKPAVKSIQSPDGDIIDCVHISKQPAFDHPFLKDHKIQMGPSYTPESLFGESKVSEKPKESVNPITQLWHQNGVCSEGTIPVRRTKKEDVLRASSVKRYGKKKHLSVPLPRSADPDLINQSGHQHAIAYVEGGKFYGAKATINVWEPKVQSSNEFSLSQLWILGGSFGQDLNSIEAGWQVSPDLYGDNNTRLFTYWTSDAYQATGCYNLLCSGFIQINSQIAMGASISPVSGFHNPQYDISITIWKDPKEGHWWMQFGDGYVLGYWPSFLFSYLADSASIVEWGGEVVNMEEDGHHTTTQMGSGQFPDEGFTKASYFRNIQVVDSSNNLKEPKGLNTFTEKSNCYDVEVGKNDDWGHYFYYGGPGRNPNCQ | soluble |
| TPGKSDEAKDVFQVQDIPPVTAIGQSGLRLNLIGKNDRILNVNSPVLYENFMVGQVESAHFDPSDQSVHYTIFIQSPNDKLIHSASRFWLESGINIETTGSGIKLNSAPLPALLSGAISFDSPKTKNSKNVKSEDSFTLYDSRSEVANLPDDRSLYYTAFFKQSVRGLTVGSPVEYKGLNVGVVSDVPYFDRNDSLHLFENGWIPVRIRIEPSRLEINADEQSKEHWKQQFQTALNKGLTATISSNNLLTGSKMIELNDQPSASPKLRPHTVYAGDTVIATQGGGLDDLQVKLADLLDKFDKLPLDKTVAELNGSLAELKSTLKSANAALSSIDKLVGKPQTQNIPNELNQTLKELRTTLQGVSPQSPIYGDVQNTLQSLDKTLKDVQPVINTLKEKPNALIFNSSSKDPIPKGSR | not soluble |
| MSFDIAKYPTLALVDSTQELRLLPKESLPKLCDELRRYLLDSVSRSSGHFASGLGTVELTVALHYVYNTPFDQLIWDVGHQAYPHKILTGRRDKIGTIRQKGGLHPFPWRGESEYDVLSVGHSSTSISAGIGIAVAAEKEGKNRRTVCVIGDGAITAGMAFEAMNHAGDIRPDMLVVLNDNEMSISENVGALNNHLAQLLSGKLYSSLREGGKKVFSGVPPIKELLKRTEEHIKGMVVPGTLFEELGFNYIGPVDGHDVLGLITTLKNMRDLKGPQFLHIMTKKGRGYEPAEKDPITFHAVPKFDPSSGCLPKSSGGLPSYSKIFGDWLCETAAKDNKLMAITPAMREGSGMVEFSRKFPDRYFDVAIAEQHAVTFAAGLAIGGYKPIVAIYSTFLQRAYDQVLHDVAIQKLPVLFAIDRAGIVGADGQTHQGAFDLSYLRCIPEMVIMTPSDENECRQMLYTGYHYNDGPSAVRYPRGNAVGVELTPLEKLPIGKGIVKRRGEKLAILNFGTLMPEAAKVAESLNATLVDMRFVKPLDETLILEMAASHEALVTVEENAIMGGAGSGVNEVLMAHRKPVPVLNIGLPDFFIPQGTQEEMRAELGLDAAGMEAKIKAWLA | not soluble |
| MVNVAVNGYGTIGKRVADAIIKQPDMKLVGVAKTSPNYEAFIAHRRGIRIYVPQQSIKKFEESGIPVAGTVEDLIKTSDIVVDTTPNGVGAQYKPIYLQLQRNAIFQGGEKAEVADISFSALCNYNEALGKKYIRVVSCNTTALLRTICTVNKVSKVEKVRATIVRRAADQKEVKKGPINSLVPDPATVPSHHAKDVNSVIRNLDIATMAVIAPTTLMHMHFINITLKDKVEKKDILSVLENTPRIVLISSKYDAEATAELVEVARDLKRDRNDIPEVMIFSDSIYVKDDEVMLMYAVHQESIVVPENIDAIRASMKLMSAEDSMRITNESLGILKGYLI | soluble |
| MGHHHHHHSHMASATQSVSRLQSIVAGLKNAPSDQLINIFESCVRNPVENIMKILKGIGETFCQHYTQSTDEQPGSHIDFAVNRLKLAEILYYKILETVMVQETRRLHGMDMSVLLEQDIFHRSLMACCLEIVLFAYSSPRTFPWIIEVLNLQPFYFYKVIEVVIRSEEGLSRDMVKHLNSIEEQILESLAWSHDS | not soluble |
| TQKPSLYRVLILNDDYTPMEFVVYVLERFFNKSREDATRIMLHVHQNGVGVCGVYTYEVAETKVAQVIDSARRHQHPLQCTMEKD | soluble |
| LAELFEKAAAHLQGLIQVASREQLLYLYARYKQVKVGNCNTPKPSFFDFEGKQKWEAWKALGDSSPSQAMQEYIAVVKKLDPGWNPQIPEKKGKEA | soluble |
